# US20250057951A1, “DISCERNIBLE CELL SURFACE PROTEIN VARIANTS OF CD117 FOR USE IN CELL THERAPY” (UNIVERSITÄT BASEL, priority 2021, published 2025)
# B1: Refmab #1-Bert: improved version of Refmab #1, VH SEQ ID 15, VL SEQ ID 63 (antibody, V domains shown)
# VH: QVQLQQPGAELVKPGASVKMSCKASGYTFTSYNMHWVKQTPGQGLEWIGVIYSGNGDTSYNQKFKGKATLTADKSSSTAYMQINSLTSEDSAVYYCARERDTRFGNWGQGTLVTVSA
# VL: EIVLTQSPSSLSASVGDRVTITCRASESVDIYGESFMHWYQQKPGKAPKLLIYLASNLESGVPSRFSGSGSGTDFTLTISSLQPEDFATYYCQQNKEEPYTFGQGTKLEIKRTV
# modifications: Refmab #1 VH
# What was measured:
# [1] = tested on: variants of CD117; experiment: Blocking of SCF-induced CD117 phosphorylation (Tyr719 ELISA), TF-1 cells with CD117 variants; assay type: cell-based, human; details: 0.5 μg/ml antibody 30 minutes; 100 ng/ml SCF 5 minutes; same for E73K, E73Y, S123F (data not shown)
# [2] = tested on: human HSCs; experiment: HSC depletion in NBSGW mice engrafted with human HSPCs; assay type: in vivo; details: 25 mg/kg i.v. days 8, 10, 12, 14; analysis 16 weeks later; vs isotype control; live/hCD45+/CD34+/CD38−/CD45RA−/CD90+
# Method: (§1) Depletion of human HSCs in mice using various mAbs was adapted from Pang et al. (Blood (2019) 133:2069-78).
# NBSGW mice (Jackson Laboratories) were injected with 1 Mio HSPCs. 8, 10, 12 and 14 days after cell injection mice received 25 mg/kg antibody Refmab #1-Bert per dose i.v. 16 weeks later the mice were euthanized and blood, spleen and bone marrow were analysed by FACS. […] HSCs were identified by FACS as live/hCD45+/CD34+/CD38−/CD45RA−/CD90+.
# [3] = tested on: CD34+ progenitor cells; experiment: Additional HSC depletion experiment in NBSGW mice with edited HSPCs; assay type: in vivo; details: 4 mg/kg i.v. days 7, 9, 11, 12, 16 weeks, vs isotype control
# Method: as §1
# NBSGW mice (Jackson Laboratories) were injected with 1 Mio HSPCs from 2 different donors carrying a E73K, S123K or D121K variant of CD117. Control groups of mice received unedited electroporation control HSPCs. 7, 9, 11 and 12 days after cell injection mice received 4 mg/kg antibody Refmab #1-Bert per dose i.v. 16 weeks later the mice were euthanized and blood, spleen and bone marrow were analyzed by FACS. To identify unedited and edited cells the CD117-specific antibody clones 104D2 and SR-1 were used. […] Cells were classified as unedited (104D2+ and SR-1+) or edited (104D2+ but SR-1−) based on double staining with both anti-CD117 clones.
# [4] = tested on: CD117; experiment: Blocking of SCF-induced CD117 phosphorylation (Tyr719 ELISA), wild type TF-1 cells; assay type: cell-based, human; details: 0.5 ug/mL antibody or 500 nM avapritinib; 100 ng/ml SCF 5 minutes
# [5] = tested on: CD117+ myeloid cells; experiment: Depletion experiment in NSG mice with E73K gene-edited HSPCs; assay type: in vivo; details: 25 mg/kg i.v. days 8, 10, 12, 14; 16 weeks; vs isotype control
# Method: In another experiment, NSG mice (Jackson Laboratories) were sub-lethally irradiated one day before injection with 1 Mio gene-edited HSPCs carrying a E73K variant of CD117. 8, 10, 12 and 14 days after cell injection mice received 25 mg/kg antibody Refmab #1-Bert or 25 mg/kg isotope control antibody i.v. per dose. 16 weeks later the mice were euthanized, and blood, spleen and bone marrow were analyzed by FACS.
# CD117+ myeloid cells were identified by FACS as live/hCD45+/CD33+/CD117+. […] Clone 104D2 was used as an expression control. Cells were classified as not edited (104D2+ and SR-1+) or E73K edited (104D2+ but SR-1−) based on double staining with anti-CD117 clone SR-1 and anti-CD117 clone 104D2.
molecule,measurement,setting,value
B1,"blocking of SCF-dependent CD117 phosphorylation, D121K and S123K variants",[1],unaffected
same,bone marrow HSC depletion,[2],in vivo depletion of HSCs
same,"effect on E73K, D121K and S123K-edited cells",[3],"enrichment of E73K, D121K and S123K-edited variant cells"
same,effect on unedited CD34+ progenitor cells,[3]; live/hCD45+/CD34+/CD38−,depletion of unedited CD34+ progenitor cells
same,"blocking of SCF-induced phosphorylation, wild type cells",[4],blocked
same,effect on E73K variant CD117+ myeloid cells in bone marrow,[5],enrichment of E73K variant cells
same,effect on unedited CD117+ myeloid cells in bone marrow,[5],depletion of unedited cells
